T1: human GIP receptor (human, UniProt P48546 22-466)
T1 construct: whole, on cells; also called hGIPR; human glucose-dependent insulinotropic polypeptide receptor
T1 sequence (looked up): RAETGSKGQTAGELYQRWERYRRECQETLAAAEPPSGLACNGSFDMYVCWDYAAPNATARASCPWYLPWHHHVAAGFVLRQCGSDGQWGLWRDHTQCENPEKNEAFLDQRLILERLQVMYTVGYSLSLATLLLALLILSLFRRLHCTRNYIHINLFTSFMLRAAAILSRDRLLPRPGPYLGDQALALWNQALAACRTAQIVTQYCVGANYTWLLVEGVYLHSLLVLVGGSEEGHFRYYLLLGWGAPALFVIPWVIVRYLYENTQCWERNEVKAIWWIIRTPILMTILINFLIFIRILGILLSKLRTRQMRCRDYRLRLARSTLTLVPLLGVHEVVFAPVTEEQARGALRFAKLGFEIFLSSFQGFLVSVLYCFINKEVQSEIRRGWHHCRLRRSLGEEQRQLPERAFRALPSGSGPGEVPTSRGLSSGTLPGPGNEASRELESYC

B1: Y-Aib-EGT-αMeF(2F)-TSD-4Pal-SI-αMeL-LD-Orn-K((2-[2-(2-Amino-ethoxy)-ethoxy]-acetyl)2-(10-(4-carboxyphenoxy)decanoyl))AQ-Aib-EFI-(D-Glu)-αMeY-LIEGGK((2-[2-(2-Ami … (peptide)
peptide: YXEGTXTSDXSIXLDXKAQXEFIXXLIEGGKSSGAPPPS
modifications: Aib2, αMeF(2F)6, 4Pal10, αMeL13, Orn16, K17(Z1), Aib20, D-Glu24, αMeY25, K31(Z1), C-term NH2; Z1=AEEA2-(10-(4-carboxyphenoxy)decanoyl)
B2: Y-Aib-EGT-αMeF(2F)-TSD-4Pal-SI-αMeL-LD-Orn-K((2-[2-(2-Amino-ethoxy)-ethoxy]-acetyl)-(γ-Glu)-(10-(4-carboxyphenoxy)decanoyl))AQ-Aib-EFI-(D-Glu)-αMeY-LIEGGK((2-[2 … (peptide)
peptide: B1 peptide
modifications: Aib2, αMeF(2F)6, 4Pal10, αMeL13, Orn16, K17(Z1), Aib20, D-Glu24, αMeY25, K31(Z1), C-term NH2; Z1=AEEA-(γ-Glu)-(10-(4-carboxyphenoxy)decanoyl)
B3: Y-Aib-EGT-αMeF(2F)-TSD-4Pal-SI-αMeL-LD-Orn-K((2-[2-(2-Amino-ethoxy)-ethoxy]-acetyl)-(γ-Glu)-CO-(CH2)12-CO2H)AQ-Aib-EFI-(D-Glu)-αMeY-LIEGGK((2-[2-(2-Amino-ethoxy … (peptide)
peptide: B1 peptide
modifications: Aib2, αMeF(2F)6, 4Pal10, αMeL13, Orn16, K17(Z1), Aib20, D-Glu24, αMeY25, K31(Z1), C-term NH2; Z1=AEEA-(γ-Glu)-CO-(CH2)12-CO2H
B4: Y-Aib-EGT-αMeF(2F)-TSD-4Pal-Aib-I-αMeL-LD-Orn-QAQ-Aib-Orn-FIK((2-[2-(2-Amino-ethoxy)-ethoxy]-acetyl)-Ahx-(γ-Glu)-CO-(CH2)12-CO2)-αMeY-LIK((2-[2-(2-Amino-ethoxy) … (peptide)
peptide: YXEGTXTSDXXIXLDXQAQXXFIKXLIKGGPSSGAPPPS
modifications: Aib2, αMeF(2F)6, 4Pal10, Aib11, αMeL13, Orn16, Aib20, Orn21, K24(Z1), αMeY25, K28(Z1), C-term NH2; Z1=AEEA-Ahx-(γ-Glu)-CO-(CH2)12-CO2 (so in the source)
B5: Y-Aib-EGT-αMeF(2F)-TSD-4Pal-Aib-I-αMeL-LD-Orn-QAQ-Aib-Orn-FIK(Ahx-(2-[2-(2-Amino-ethoxy)-ethoxy]-acetyl)-(γ-Glu)-(10-(4-carboxyphenoxy)decanoyl))-αMeY-LIK(Ahx-( … (peptide)
peptide: B4 peptide
modifications: Aib2, αMeF(2F)6, 4Pal10, Aib11, αMeL13, Orn16, Aib20, Orn21, K24(Z1), αMeY25, K28(Z1), C-term NH2; Z1=Ahx-AEEA-(γ-Glu)-(10-(4-carboxyphenoxy)decanoyl)
B6: Y-Aib-EGT-αMeF(2F)-TSD-4Pal-Aib-I-αMeL-LD-Orn-QAQ-Aib-Orn-FIK((2-[2-(2-Amino-ethoxy)-ethoxy]-acetyl)-Ahx-(γ-Glu)-(10-(4-carboxyphenoxy)decanoyl))-αMeY-LIK((2-[2 … (peptide)
peptide: B4 peptide
modifications: Aib2, αMeF(2F)6, 4Pal10, Aib11, αMeL13, Orn16, Aib20, Orn21, K24(Z1), αMeY25, K28(Z1), C-term NH2; Z1=AEEA-Ahx-(γ-Glu)-(10-(4-carboxyphenoxy)decanoyl)
B7: Y-Aib-EGT-αMeF(2F)-TSD-4Pal-Aib-I-αMeL-LD-Orn-QAQ-Aib-Orn-FIK((2-[2-(2-Amino-ethoxy)-ethoxy]-acetyl)-(γ-Glu)-(2-[2-(2-Amino-ethoxy)-ethoxy]-acetyl)-(γ-Glu)-CO-( … (peptide)
peptide: B4 peptide
modifications: Aib2, αMeF(2F)6, 4Pal10, Aib11, αMeL13, Orn16, Aib20, Orn21, K24(Z1), αMeY25, K28(Z1), C-term NH2; Z1=AEEA-(γ-Glu)-AEEA-(γ-Glu)-CO-(CH2)12-CO2H
B8: Y-Aib-EGT-αMeF(2F)-TSD-4Pal-Aib-I-αMeL-LD-Orn-QAQ-Aib-Orn-FIK(PEG4-(γ-Glu)-CO-(CH2)12-CO2H)-αMeY-LIK(PEG4-(γ-Glu)-CO-(CH2)12-CO2H)GGPSSGAPPPS-NH2 (peptide)
peptide: B4 peptide
modifications: Aib2, αMeF(2F)6, 4Pal10, Aib11, αMeL13, Orn16, Aib20, Orn21, K24(Z1), αMeY25, K28(Z1), C-term NH2; Z1=PEG4-(γ-Glu)-CO-(CH2)12-CO2H
B9: Y-Aib-EGT-αMeF(2F)-TSD-4Pal-Aib-I-αMeL-LD-Orn-QAQ-Aib-Orn-FIK((2-[2-(2-Amino-ethoxy)-ethoxy]-acetyl)-(γ-Glu)-(2-[2-(2-Amino-ethoxy)-ethoxy]-acetyl)-(γ-Glu)-(10- … (peptide)
peptide: B4 peptide
modifications: Aib2, αMeF(2F)6, 4Pal10, Aib11, αMeL13, Orn16, Aib20, Orn21, K24(Z1), αMeY25, K28(Z1), C-term NH2; Z1=AEEA-(γ-Glu)-AEEA-(γ-Glu)-(10-(4-carboxyphenoxy)decanoyl)
B10: Y-Aib-EGT-αMeF(2F)-TSD-4Pal-Aib-I-αMeL-LD-Orn-QAQ-Aib-Orn-FIK(PEG5-(γ-Glu)-CO-(CH2)12-CO2H)-αMeY-LIK(PEG5-(γ-Glu)-CO-(CH2)12-CO2H)GGPSSGAPPPS-NH2 (peptide)
peptide: B4 peptide
modifications: Aib2, αMeF(2F)6, 4Pal10, Aib11, αMeL13, Orn16, Aib20, Orn21, K24(Z1), αMeY25, K28(Z1), C-term NH2; Z1=PEG5-(γ-Glu)-CO-(CH2)12-CO2H
B11: Y-Aib-EGT-αMeF(2F)-TSD-4Pal-Aib-I-αMeL-LD-Orn-QAQ-Aib-Orn-FIK(Ahx-(2-[2-(2-Amino-ethoxy)-ethoxy]-acetyl)-(γ-Glu)-CO-(CH2)12-CO2)-αMeY-LIK(Ahx-(2-[2-(2-Amino-eth … (peptide)
peptide: B4 peptide
modifications: Aib2, αMeF(2F)6, 4Pal10, Aib11, αMeL13, Orn16, Aib20, Orn21, K24(Z1), αMeY25, K28(Z1), C-term NH2; Z1=Ahx-AEEA-(γ-Glu)-CO-(CH2)12-CO2 (so in the source)
B12: Y-Aib-EGT-αMeF(2F)-TSD-4Pal-Aib-I-αMeL-LD-Orn-QAQ-Aib-Orn-FIK((γ-Glu)-(2-[2-(2-Amino-ethoxy)-ethoxy]-acetyl)2-(γ-Glu)-CO-(CH2)12-CO2H)-αMeY-LIK((γ-Glu)-(2-[2-(2 … (peptide)
peptide: B4 peptide
modifications: Aib2, αMeF(2F)6, 4Pal10, Aib11, αMeL13, Orn16, Aib20, Orn21, K24(Z1), αMeY25, K28(Z1), C-term NH2; Z1=(γ-Glu)-AEEA2-(γ-Glu)-CO-(CH2)12-CO2H
B13: Y-Aib-EGT-αMeF(2F)-TSD-4Pal-Aib-I-αMeL-LD-Orn-QAQ-Aib-Orn-FIK((2-[2-(2-Amino-ethoxy)-ethoxy]-acetyl)-(γ-Glu)3-(10-(4-carboxyphenoxy)decanoyl))-αMeY-LIK((2-[2-(2 … (peptide)
peptide: B4 peptide
modifications: Aib2, αMeF(2F)6, 4Pal10, Aib11, αMeL13, Orn16, Aib20, Orn21, K24(Z1), αMeY25, K28(Z1), C-term NH2; Z1=AEEA-(γ-Glu)3-(10-(4-carboxyphenoxy)decanoyl)
B14: Y-Aib-EGT-αMeF(2F)-TSD-4Pal-Aib-I-αMeL-LD-Orn-QAQ-Aib-Orn-FIK(PEG3-(γ-Glu)-(10-(4-carboxyphenoxy)decanoyl))-αMeY-LIK(PEG3-(γ-Glu)-(10-(4-carboxyphenoxy)decanoyl … (peptide)
peptide: B4 peptide
modifications: Aib2, αMeF(2F)6, 4Pal10, Aib11, αMeL13, Orn16, Aib20, Orn21, K24(Z1), αMeY25, K28(Z1), C-term NH2; Z1=PEG3-(γ-Glu)-(10-(4-carboxyphenoxy)decanoyl)
B15: Y-Aib-EGT-αMeF(2F)-TSD-4Pal-Aib-I-αMeL-LD-Orn-QAQ-Aib-Orn-FIK(PEG5-(γ-Glu)-(10-(4-carboxyphenoxy)decanoyl))-αMeY-LIK(PEG5-(γ-Glu)-(10-(4-carboxyphenoxy)decanoyl … (peptide)
peptide: B4 peptide
modifications: Aib2, αMeF(2F)6, 4Pal10, Aib11, αMeL13, Orn16, Aib20, Orn21, K24(Z1), αMeY25, K28(Z1), C-term NH2; Z1=PEG5-(γ-Glu)-(10-(4-carboxyphenoxy)decanoyl)
B16: Y-Aib-EGT-αMeF(2F)-TSD-4Pal-Aib-I-αMeL-LD-Orn-QAQ-Aib-Orn-FIK(PEG6-(γ-Glu)-(10-(4-carboxyphenoxy)decanoyl))-αMeY-LIK(PEG6-(γ-Glu)-(10-(4-carboxyphenoxy)decanoyl … (peptide)
peptide: B4 peptide
modifications: Aib2, αMeF(2F)6, 4Pal10, Aib11, αMeL13, Orn16, Aib20, Orn21, K24(Z1), αMeY25, K28(Z1), C-term NH2; Z1=PEG6-(γ-Glu)-(10-(4-carboxyphenoxy)decanoyl)
B17: Y-Aib-EGT-αMeF(2F)-TSD-4Pal-Aib-I-αMeL-LD-Orn-QAQ-Aib-Orn-FIK(((2-[2-(2-Amino-ethoxy)-ethoxy]-acetyl)2--Trx-(γ-Glu)-(10-(4-carboxyphenoxy)decanoyl))-αMeY-LIK((( … (peptide)
peptide: B4 peptide
modifications: Aib2, αMeF(2F)6, 4Pal10, Aib11, αMeL13, Orn16, Aib20, Orn21, K24(Z1), αMeY25, K28(Z1), C-term NH2; Z1=AEEA2-Trx-(γ-Glu)-(10-(4-carboxyphenoxy)decanoyl)

The binders below were run against T2, human glucagon receptor (human, UniProt P47871 26-477) (assay: SPA competition vs [125I]-Gcg, hGcgR membranes).
T2 construct: whole, on cells; also called hGCGR; hGcgR
T2 sequence (P47871 26-477): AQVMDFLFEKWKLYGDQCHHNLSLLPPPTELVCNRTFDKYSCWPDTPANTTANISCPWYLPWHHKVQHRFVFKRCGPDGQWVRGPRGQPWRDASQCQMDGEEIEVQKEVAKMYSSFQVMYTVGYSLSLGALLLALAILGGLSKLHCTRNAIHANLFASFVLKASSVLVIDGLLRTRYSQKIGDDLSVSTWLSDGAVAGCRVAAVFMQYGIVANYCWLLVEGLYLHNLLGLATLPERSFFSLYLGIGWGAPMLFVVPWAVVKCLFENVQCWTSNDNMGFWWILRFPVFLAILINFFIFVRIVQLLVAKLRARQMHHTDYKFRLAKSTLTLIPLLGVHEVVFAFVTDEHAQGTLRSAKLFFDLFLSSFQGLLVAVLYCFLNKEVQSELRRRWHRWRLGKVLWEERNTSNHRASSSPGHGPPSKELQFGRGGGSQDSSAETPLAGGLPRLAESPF

| Binder | Ki [nM] |
| --- | --- |
| B1 | 424 |
| B2 | 213 |
| B3 | 660 |
| B4 | 243 |
| B5 | 60.1 |
| B6 | 71.8 |
| B7 | 305 |
| B8 | 351 |
| B9 | 121 |
| B10 | 208 |
| B11 | 258 |
| B12 | 273 |
| B13 | 73.3 |
| B14 | 87.5 |
| B15 | 144 |
| B16 | 269 |
| B17 | 452 |

What follows are binders tested against T1, human GIP receptor (assay: SPA competition vs [125I]-GIP, hGIPR membranes).

| Binder | Ki [nM] |
| --- | --- |
| B1 | 0.0489 |
| B2 | 0.0575 |
| B3 | 0.0508 |
| B4 | 0.0133 |
| B5 | 0.0143 |
| B6 | 0.013 |
| B7 | 0.0296 |
| B8 | 0.0419 |
| B9 | 0.0548 |
| B10 | 0.0486 |
| B11 | 0.0239 |
| B12 | 0.0277 |
| B13 | 0.0714 |
| B14 | 0.0102 |
| B15 | 0.0387 |
| B16 | 0.0291 |
| B17 | 0.0493 |

The binders below were run against T3, human GLP-1 receptor (human, UniProt P43220 24-463) (assay: SPA competition vs [125I]-GLP-1, hGLP-1R membranes).
T3 construct: whole, on cells; also called hGLP-1R; human glucagon-like peptide-1 receptor
Method in brief: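 Competition binding in 25 mM HEPES pH 7.4, 2.5 mM CaCl₂, 1 mM MgCl₂, 0.1% bacitracin, 0.003% TWEEN-20, EDTA-free protease inhibitors. IC₅₀ from four-parameter nonlinear fit; Kᵢ given as geometric mean ± SEM, n = independent replicates on different days.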

| Binder | Ki [nM] |
| --- | --- |
| B1 | 0.681 |
| B2 | 0.638 |
| B3 | 1.06 |
| B4 | 0.201 |
| B5 | 0.243 |
| B6 | 0.123 |
| B7 | 0.268 |
| B8 | 0.252 |
| B9 | 0.3 |
| B10 | 0.381 |
| B11 | 0.234 |
| B12 | 0.254 |
| B13 | 0.217 |
| B14 | 0.125 |
| B15 | 0.0847 |
| B16 | 0.0943 |
| B17 | 0.197 |

From patent publication US20230265151A1, “GIP/GLP1 CO-AGONIST COMPOUNDS” (priority 2020, published 2023)
